Measurements taken from PMC11965522 (Communications Biology, 2025).

Assays:
[1] = biological target: T1, P. furiosus (Pf) Mre11, wild type (P. furiosus, UniProt Q8U1N9 1-426); experiment: SEC
[2] = biological target: the molecule itself; experiment: FRET or BRET
[3] = biological target: T1, P. furiosus (Pf) Mre11, wild type; experiment: FRET or BRET

Row | Binder | binding result [1] | binding result [2] | binding result [3]
1 | P. furiosus Rad50 nucleotide-binding domain construct (aa 1-195 - GGAGGAGG linker - aa 709-882) (domain or fragment) MKLERVTVKNFRSHSDTVVEFKEGINLIIGQNGSGKSSLLDAILVGLYWPLRIKDIKKDEFTKVGARDTYIDLIFEKDGTKYRITRRFLKGYSSGEIHAMKRLVGNEWKHVTEPSSKAISAFMEKLIPYNIFLNAIYIRQGQIDAILESDEAREKVVREVLNLDKFETAYKKLSELKKTINNRIKEYRDILARTEGGAGGAGGRERVKKEIKDLEKAKDFTEELIEKVKKYKALAREAALSKIGELASEIFAEFTEGKYSEVVVRAEENKVRLFVVWEGKERPLTFLSGGERIALGLAFRLAMSLYLAGEISLLILDEPTPYLDEERRRKLITIMERYLKKIPQVILVSHDEELKDAADHVIRISLENGSSKVEVVS | binds | – | –
2 | P. furiosus Rad50^NBD [change] [change], fluorophore-labeled (domain or fragment) MKLERVTVKNFRSHSDTVVEFKEGINLIIGQNGSGKSSLLDAILVGLYWPCRIKDIKKDEFTKVGARDTYIDLIFEKDGTKYRITRRFLKGYSSGEIHAMKRLVGNEWKHVTEPSSKAISAFMEKLIPYNIFLNAIYIRQGQIDAILESDEAREKVVREVLNLDKFETAYKELSELKKTINNRIKEYRDILARTEGGAGGAGGRERVKKEIKDLEKAKDFTEELIEKVKKYKALAREAALSKIGELASEIFAEFTEGKYSEVVVRAEENKVRLFVVWEGKERPLTFLSGGERIALGLAFRLAMSLYLAGEISLLILDEPTPYLDEERRRKLITIMERYLKKIPQVILVSHDEELKDAADHVIRISLENGSSKVEVVS | – | binds | binds
3 | P. furiosus Rad50^NBD [change] [change]/[change], fluorophore-labeled (domain or fragment) MKLERVTVKNFRSHSDTVVEFKEGINLIIGQNGSGKSSLLDAILVGLYWPCRIKDIKKDEFTKVGARDTYIDLIFEKDGTKYRITRRFLKGYSSGEIHAMKRLVGNEWKHVTEPSSKAISAFMEKLIPYNIFLNAIYIRQGQIDAILESDEAREKVVREVLNLDKFETAYKKLSELKKTINNRIKEYRDILARTEGGAGGAGGRERVKKEIKDLEKAKDFTEELIEKVKKYKALAREAALSKIGELASEIFAEFTEGKYSEVVVRAEENKVRLFVVWEGKERPLTFLSGGERIALGLAFRLAMSLYLAGEISLLILDEPTPYLDEEREEKLITIMERYLKKIPQVILVSHDEELKDAADHVIRISLENGSSKVEVVS | – | binds | binds
4 | P. furiosus Rad50^NBD [change] [change], fluorophore-labeled (domain or fragment) MKLERVTVKNFRSHSDTVVEFKEGINLIIGQNGSGKSSLLDAILVGLYWPCRIKDIKKDEFTKVGARDTYIDLIFEKDGTKYRITRRFLKGYSSGEIHAMKRLVGNEWKHVTEPSSKAISAFMEKLIPYNIFLNAIYIRQGQIDAILESDEAREKVVREVLNLDKFETAYKKLSELKKTINNRIKEYRDILARTEGGAGGAGGRERVKKEIKDLEKAKDFTEELIEKVKKYKALAREAALSKIGELASEIFAEFTEGKYSEVVVRAEENKVRLFVVWEGKERPLTFLSGGERIALGLAFRLAMSLYLAGEISLLILDEPTPYLDEERRRKLITIMERYLKKIPQVILVSHDEELKDAADHVIEISLENGSSKVEVVS | – | binds | binds
5 | P. furiosus Rad50^NBD [change] [change]/[change], fluorophore-labeled (domain or fragment) MKLERVTVKNFRSHSDTVVEFKEGINLIIGQNGSGKSSLLDAILVGLYWPCRIKDIKKDEFTKVGARDTYIDLIFEKDGTKYRITRRFLKGYSSGEIHAMKRLVGNEWKHVTEPEEKAISAFMEKLIPYNIFLNAIYIRQGQIDAILESDEAREKVVREVLNLDKFETAYKKLSELKKTINNRIKEYRDILARTEGGAGGAGGRERVKKEIKDLEKAKDFTEELIEKVKKYKALAREAALSKIGELASEIFAEFTEGKYSEVVVRAEENKVRLFVVWEGKERPLTFLSGGERIALGLAFRLAMSLYLAGEISLLILDEPTPYLDEERRRKLITIMERYLKKIPQVILVSHDEELKDAADHVIRISLENGSSKVEVVS | – | binds | binds
